The target of the data set is CsrA-His6 (Escherichia coli) (UniProt P69913). The data set can be described thus: EMSA. Particulars: EMSA: 0.1 nM RNA, 10 mM MgCl2, 100 mM KCl, 32.5 ng yeast RNA, 20 mM DTT, 7.5% glycerol, 4 U SUPERasin, 30 min 37 C (pH not given), footprint: 2 nM RNA.

As a reminder, the Kd is the concentration at which binding is half-saturated.

Chain of CsrA-His6 (Escherichia coli) (P69913 whole entry): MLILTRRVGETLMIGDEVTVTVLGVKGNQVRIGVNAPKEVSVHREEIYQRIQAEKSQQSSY

Turning to “yqjD leader WT, full-length (yqjC-yqjD intercistronic RNA)”, the Kd is 8 nM. The Kd (second shifted species at 30 nM CsrA and higher) came to 9 nM.
In turn, “yqjD leader full-length, BS4 mutant (CUGGA to GUGGA)” yielded a Kd of 25 nM.

Source of the values: PMC10746276.
